Measured values published in publication PMC10484734, “TLK1-mediated RAD54 phosphorylation spatio-temporally regulates Homologous Recombination Repair” (Nucleic Acids Research, 2023).
Residue numbers refer to the chain shown, from its start.

How the values were obtained:
[1] = molecular target: T1, RAD54-T41, T59D (RAD54-T2D), recombinant (human, UniProt Q92698 1-747, T41D | T59D); assay: pull-down; purified RAD54 forms with RAD51; reactions eluted from beads, eluate and supernatant on silver-stained gels, quantified; which protein was held on the beads is not told; conditions: both partners purified
T1 construct: human RAD54 (RAD54L) with the phosphomimic changes T41D and T59D; also called NTD phosphomimic; source: recombinant, purified
T1 sequence (looked up): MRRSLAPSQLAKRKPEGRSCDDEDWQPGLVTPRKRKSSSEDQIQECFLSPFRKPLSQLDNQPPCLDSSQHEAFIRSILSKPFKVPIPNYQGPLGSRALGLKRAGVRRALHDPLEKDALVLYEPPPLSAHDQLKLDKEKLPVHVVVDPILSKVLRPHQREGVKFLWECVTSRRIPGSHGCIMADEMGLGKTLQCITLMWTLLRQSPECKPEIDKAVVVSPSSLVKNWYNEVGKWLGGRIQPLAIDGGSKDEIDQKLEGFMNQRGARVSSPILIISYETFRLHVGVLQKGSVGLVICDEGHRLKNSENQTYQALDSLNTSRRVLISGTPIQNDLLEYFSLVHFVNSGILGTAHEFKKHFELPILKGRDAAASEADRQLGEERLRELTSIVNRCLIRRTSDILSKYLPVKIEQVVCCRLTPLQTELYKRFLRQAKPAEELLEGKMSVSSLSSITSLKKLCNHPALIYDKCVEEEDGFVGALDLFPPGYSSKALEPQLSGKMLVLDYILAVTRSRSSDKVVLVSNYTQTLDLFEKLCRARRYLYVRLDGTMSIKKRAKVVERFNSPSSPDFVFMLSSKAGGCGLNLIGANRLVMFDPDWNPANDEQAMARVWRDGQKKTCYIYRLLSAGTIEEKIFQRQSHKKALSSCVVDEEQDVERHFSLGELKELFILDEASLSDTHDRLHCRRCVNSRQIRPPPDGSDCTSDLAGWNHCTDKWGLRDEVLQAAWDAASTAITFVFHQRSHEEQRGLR

RAD54-T700D, recombinant = molecular target: T2, RAD54-T700D, recombinant (human, UniProt Q92698 1-747, T700D); assay: as above; conditions: both partners purified
T2 construct: human RAD54 (RAD54L) with the phosphomimic change T700D; also called purified RAD54-T700D; CTD mutant; source: recombinant, purified
T2 sequence (looked up): T1 sequence (looked up) with D41T, D59T, T700D

binding result [1]: binds
binding result (RAD54-T700D, recombinant): binds
B1: recombinant human RAD51 (natural protein, UniProt Q06609 1-339, looked up)
chain: MAMQMQLEANADTSVEEESFGPQPISRLEQCGINANDVKKLEEAGFHTVEAVAYAPKKELINIKGISEAKADKILAEAAKLVPMGFTTATEFHQRRSEIIQITTGSKELDKLLQGGIETGSITEMFGEFRTGKTQICHTLAVTCQLPIDRGGGEGKAMYIDTEGTFRPERLLAVAERYGLSGSDVLDNVAYARAFNTDHQTQLLYQASAMMVESRYALLIVDSATALYRTDYSGRGELSARQMHLARFLRMLLRLADEFGVAVVITNQVVAQVDGAAMFAADPKKPIGGNIIAHASTTRLYLRKGRGETRICKIYDSPCLPEAEAMFAINADGVGDAKD
notes: human RAD51 recombinase; also called rc-RAD51
